T1: PGC1α 6X his-tagged construct (UniProt Q9UBK2 1-798)
T1 construct: PGC1α, 6X his-tagged construct held on a Ni-NTA chip
T1 sequence (looked up): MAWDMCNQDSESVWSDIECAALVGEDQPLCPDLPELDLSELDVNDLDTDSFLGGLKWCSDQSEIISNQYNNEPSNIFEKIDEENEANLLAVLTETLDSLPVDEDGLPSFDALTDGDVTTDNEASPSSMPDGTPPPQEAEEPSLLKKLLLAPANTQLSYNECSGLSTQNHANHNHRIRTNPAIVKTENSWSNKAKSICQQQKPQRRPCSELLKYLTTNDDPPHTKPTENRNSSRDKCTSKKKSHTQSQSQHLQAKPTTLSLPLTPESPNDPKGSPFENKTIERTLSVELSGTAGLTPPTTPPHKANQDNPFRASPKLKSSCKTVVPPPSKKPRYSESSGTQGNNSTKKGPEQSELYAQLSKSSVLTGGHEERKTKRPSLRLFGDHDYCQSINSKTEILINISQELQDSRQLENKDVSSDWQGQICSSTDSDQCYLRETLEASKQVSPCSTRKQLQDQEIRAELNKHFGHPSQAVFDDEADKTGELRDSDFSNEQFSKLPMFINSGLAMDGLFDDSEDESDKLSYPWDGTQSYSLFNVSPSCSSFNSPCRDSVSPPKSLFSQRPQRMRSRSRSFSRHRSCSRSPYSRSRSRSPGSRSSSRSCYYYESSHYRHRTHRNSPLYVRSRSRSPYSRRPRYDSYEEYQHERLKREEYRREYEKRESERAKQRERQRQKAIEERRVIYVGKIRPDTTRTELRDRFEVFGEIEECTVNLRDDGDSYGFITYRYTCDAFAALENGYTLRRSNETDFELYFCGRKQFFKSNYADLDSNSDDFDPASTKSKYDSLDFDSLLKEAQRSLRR


Assays:
Settings in all cases: both partners purified
[1] = target: T2, Clk1 (recombinant, covalently immobilised on the CM5 chip) (UniProt P49759 1-484); assay: SPR; Biacore T200; Clk1, Clk2 (1000 RU) and Clk4 (1000 RU) covalently immobilised on a CM5 chip by NHS/EDC; PGC1α titrated in HBS-N without DMSO, 30 µl/min, 60 s association, 120 s dissociation; steady state, one-site specific binding model
T2 construct: Clk1 kinase, recombinant; The methods print the catalogue number beside PDB 1Z57, which was used for modelling; also called Clk1 GST; source: bought: AbCam #114 706 (recombinant)

[2] = target: T3, Clk2 (recombinant, covalently immobilised on the CM5 chip) (UniProt P49760 1-499); assay: as above
T3 construct: Clk2 kinase, recombinant; source: bought: Abcam #AB63190 (recombinant)

[3] = target: T4, Clk4 (recombinant, covalently immobilised on the CM5 chip) (UniProt Q9HAZ1 1-481); assay: as above
T4 construct: Clk4 kinase, recombinant; source: bought: Abcam#AB204144 (recombinant)

[4] = target: T1, PGC1α 6X his-tagged construct; assay: SPR; Biacore T200; ~1000 RU PGC1α 6X his held non-covalently on a Ni-NTA chip; Clk1 flowed, 30 µl/min; one-site specific binding model with Hill slope

T4 sequence (Q9HAZ1 whole entry): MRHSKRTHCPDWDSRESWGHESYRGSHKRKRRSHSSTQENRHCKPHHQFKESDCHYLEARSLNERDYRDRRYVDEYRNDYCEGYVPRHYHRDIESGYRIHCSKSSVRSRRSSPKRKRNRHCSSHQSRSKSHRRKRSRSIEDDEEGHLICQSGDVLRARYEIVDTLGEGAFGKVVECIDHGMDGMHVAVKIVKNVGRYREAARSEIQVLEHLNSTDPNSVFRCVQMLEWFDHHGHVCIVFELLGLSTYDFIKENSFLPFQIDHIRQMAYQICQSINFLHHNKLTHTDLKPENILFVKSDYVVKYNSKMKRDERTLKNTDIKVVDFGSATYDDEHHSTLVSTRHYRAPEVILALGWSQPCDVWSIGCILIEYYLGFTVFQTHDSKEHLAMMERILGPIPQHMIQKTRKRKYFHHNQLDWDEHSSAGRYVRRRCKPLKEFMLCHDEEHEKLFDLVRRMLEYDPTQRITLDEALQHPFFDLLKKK
T2 sequence (P49759 whole entry): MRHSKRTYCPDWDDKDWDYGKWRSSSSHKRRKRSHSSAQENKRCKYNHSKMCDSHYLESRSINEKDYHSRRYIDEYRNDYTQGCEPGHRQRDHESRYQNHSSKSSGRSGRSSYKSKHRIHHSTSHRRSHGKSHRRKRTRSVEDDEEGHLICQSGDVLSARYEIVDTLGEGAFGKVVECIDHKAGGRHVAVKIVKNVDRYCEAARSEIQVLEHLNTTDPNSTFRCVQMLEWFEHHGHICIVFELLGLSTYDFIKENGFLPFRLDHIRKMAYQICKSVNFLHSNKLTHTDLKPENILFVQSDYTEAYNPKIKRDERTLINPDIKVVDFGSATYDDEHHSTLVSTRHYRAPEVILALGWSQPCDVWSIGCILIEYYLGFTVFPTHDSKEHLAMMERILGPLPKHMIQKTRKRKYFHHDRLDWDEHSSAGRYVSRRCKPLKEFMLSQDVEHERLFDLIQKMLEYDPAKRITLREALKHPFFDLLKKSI
T3 sequence (P49760 whole entry): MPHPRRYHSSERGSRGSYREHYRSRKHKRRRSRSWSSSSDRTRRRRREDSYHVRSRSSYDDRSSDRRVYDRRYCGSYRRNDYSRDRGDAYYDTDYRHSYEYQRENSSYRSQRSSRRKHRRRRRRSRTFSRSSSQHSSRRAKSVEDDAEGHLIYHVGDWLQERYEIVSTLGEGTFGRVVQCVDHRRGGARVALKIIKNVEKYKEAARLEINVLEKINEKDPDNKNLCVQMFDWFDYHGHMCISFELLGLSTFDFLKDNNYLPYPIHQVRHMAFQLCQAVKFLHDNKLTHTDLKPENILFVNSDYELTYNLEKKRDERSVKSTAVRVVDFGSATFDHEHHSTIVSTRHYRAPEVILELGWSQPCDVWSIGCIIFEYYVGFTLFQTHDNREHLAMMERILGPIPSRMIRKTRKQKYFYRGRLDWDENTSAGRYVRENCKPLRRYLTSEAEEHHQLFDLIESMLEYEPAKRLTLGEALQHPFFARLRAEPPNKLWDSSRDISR

| Binder | Kd [1] [nM] | Kd [2] [nM] | Kd [3] [nM] | Kd [4] [nM] |
| --- | --- | --- | --- | --- |
| PGC1α (titrated and flowed over the Clk chips) (natural protein, Limits are not printed. They are recalled from the supplier's listing for catalogue H00010891-Q01 (partial human PPARGC1A, NP_037393 aa 689-798, N-terminal GST) and should be verified. GST is left …) TRTELRDRFEVFGEIEECTVNLRDDGDSYGFITYRYTCDAFAALENGYTLRRSNETDFELYFCGRKQFFKSNYADLDSNSDDFDPASTKSKYDSLDFDSLLKEAQRSLRR | 240 | 980 | 509 |  |
| Clk1 (flowed over immobilised PGC1α 6X his) (enzyme, Clk1 kinase, recombinant; May be the same bought protein as m1 (AbCam #114 706)) not shown |  |  |  | ~38 |

Reference: article PMC9344812, “Induction of beige‐like adipocyte markers and functions in 3T3‐L1 cells by Clk1 and PKCβII inhibitory molecules” (Journal of Cellular and Molecular Medicine, 2022)
